The numbers were not newly measured in paper PMC11417995, which cites them from elsewhere.

For series [1], the target named is ubiquitin (Homo sapiens) (UniProt P0CG47). As to the kind of experiment: TR-FRET. (Time-resolved FRET reads energy transfer from a long-lived donor to a nearby acceptor.)
The target is the same in series [2]. The series can be described thus: NMR.
For series [3] the target is unchanged. As to the kind of experiment: SPR. In general terms: In SPR one partner is held on a chip, and binding of the other changes the refractive index at the surface.

Sequence of CDC34A (P49427 whole entry): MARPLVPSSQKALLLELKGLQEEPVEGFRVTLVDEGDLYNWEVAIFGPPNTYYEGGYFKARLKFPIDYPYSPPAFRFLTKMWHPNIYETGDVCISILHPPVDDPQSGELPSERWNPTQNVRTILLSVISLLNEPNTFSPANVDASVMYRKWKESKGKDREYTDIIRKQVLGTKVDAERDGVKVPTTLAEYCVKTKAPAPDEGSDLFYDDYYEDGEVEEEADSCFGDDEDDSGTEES
Sequence of UBE2K (P61086 2-200): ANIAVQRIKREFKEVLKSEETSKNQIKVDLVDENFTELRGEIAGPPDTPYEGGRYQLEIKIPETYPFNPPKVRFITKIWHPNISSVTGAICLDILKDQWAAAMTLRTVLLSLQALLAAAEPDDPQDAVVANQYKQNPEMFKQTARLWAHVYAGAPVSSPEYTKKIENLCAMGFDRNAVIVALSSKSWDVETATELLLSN
Sequence of UBE2K UBA (P61086 157-200): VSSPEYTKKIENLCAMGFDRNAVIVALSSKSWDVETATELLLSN

Consider CDC34A (from UniProt P49427), for which the Kd (usually the constant that tells how readily two partners part at equilibrium) in the series with ubiquitin (Homo sapiens) [1] is 14 µM. Regarding UBE2K (from UniProt P61086), the Kd with ubiquitin (Homo sapiens) [2] is 1250 µM. Regarding UBE2K UBA (from UniProt P61086), the Kd with ubiquitin (Homo sapiens) [3] was 400 µM.
